# Laboratory results reported in the supplement of paper PMC11780869.
# System: Bacillus subtilis
# Assay: cleaved RNA product abundance (RNA/gDNA barcode ratio) relative to median wild-type variant (ratio to wild type); higher = more accumulation of the downstream cleavage product
# Settings: experiment (reporter, strain, medium): exp 8a: truncated aprE reporter, strain BJT201 with 2% xylose (RNase J1 expressed); cleavage site: glnRA (positions -5 to +31 mutated)
# Outline: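 Cleaved product abundance is expressed as the RNA:gDNA barcode ratio per construct, scaled to the median construct carrying the unmutated site. The constructs were barcoded, mutagenized RNase Y cleavage-site windows in truncated aprE or tetM reporter mRNAs integrated into the B. subtilis chromosome. Cultures grew in LB at 37°C from OD600 0.0003 to 0.3 before cleaved RNA was gel-selected and barcode-sequenced.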
row,Sequence,cleaved RNA product abundance
1,CGACATGTCCCGCTTCTTTCATTAATCCGTTAGCAAGTGTTTTTCTATATACATTTACCTTTTAAGAGGAGGAAT,0.603
2,CGACATGTCCCGCTTCTTTCATTAATCCGTTAGCAAGTTTTTTGCTATATACATTTACCTTTTAAGAGGAGGAAT,0.974
3,CGACATGTCCCGCTTCTTTCATTAATCCGTTAGCAATCGTTTTGCTATATACATTTACCTTTTAAGAGGAGGAAT,1.11
4,CGACATGTCCCGCTTCTTTCATTAATCCGTTAGCAATGGTTTTGCTATATACATTTACCTTTTAAGAGGAGGAAT,1.08
5,CGACATGTCCCGCTTCTTTCATTAATCCGTTAGCAATTATTTTGCTATATACATTTACCTTTTAAGAGGAGGAAT,1.14
6,CGACATGTCCCGCTTCTTTCATTAATCCGTTAGCAATTGTGTTGCTATATACATTTACCTTTTAAGAGGAGGAAT,0.947
7,CGACATGTCCCGCTTCTTTCATTAATCCGTTAGCAATTGTTTAGCTATATACATTTACCTTTTAAGAGGAGGAAT,0.468
8,CGACATGTCCCGCTTCTTTCATTAATCCGTTAGCAATTGTTTTGATATATACATTTACCTTTTAAGAGGAGGAAT,0.65
9,CGACATGTCCCGCTTCTTTCATTAATCCGTTAGCAATTGTTTTGCCATATACATTTACCTTTTAAGAGGAGGAAT,0.156
10,CGACATGTCCCGCTTCTTTCATTAATCCGTTAGCAATTGTTTTGCTAAATACATTTACCTTTTAAGAGGAGGAAT,0.342
11,CGACATGTCCCGCTTCTTTCATTAATCCGTTAGCAATTGTTTTGCTATAGACATTTACCTTTTAAGAGGAGGAAT,0.345
12,CGACATGTCCCGCTTCTTTCATTAATCCGTTAGCAATTGTTTTGCTATATAAATTTACCTTTTAAGAGGAGGAAT,1.01
13,CGACATGTCCCGCTTCTTTCATTAATCCGTTAGCAATTGTTTTGCTATATACAATTACCTTTTAAGAGGAGGAAT,1.24
14,CGACATGTCCCGCTTCTTTCATTAATCCGTTAGCAATTGTTTTGCTATATACATGTACCTTTTAAGAGGAGGAAT,0.526
15,CGACATGTCCCGCTTCTTTCATTAATCCGTTAGCAATTGTTTTGCTATATACATTAACCTTTTAAGAGGAGGAAT,1.62
16,CGACATGTCCCGCTTCTTTCATTAATCCGTTAGCAATTGTTTTGCTATATACATTCACCTTTTAAGAGGAGGAAT,0.849
17,CGACATGTCCCGCTTCTTTCATTAATCCGTTAGCAATTGTTTTGCTATATACATTGACTTTTTAAGAGGAGGAAT,1.33
18,CGACATGTCCCGCTTCTTTCATTAATCCGTTAGCAATTGTTTTGCTATATACATTTAACTTTTAAGAGGAGGAAT,1.06
19,CGACATGTCCCGCTTCTTTCATTAATCCGTTAGCAATTGTTTTGCTATATACATTTACCTTTTAAGAGGAGGAAT,1.24
20,CGACATGTCCCGCTTCTTTCATTAATCCGTTAGCAATTGTTTTGCTATATACATTTACGTTTTAAGAGGAGGAAT,1.1
21,CGACATGTCCCGCTTCTTTCATTAATCCGTTAGCAATTGTTTTGCTATATACATTTACTTTTTAAGAGGAGGAAT,1.01
22,CGACATGTCCCGCTTCTTTCATTAATCCGTTAGCAATTGTTTTGCTATATACATTTGCCTTTTAAGAGGAGGAAT,0.188

row,Sequence,cleaved RNA product abundance
1,CGACATGTCCCGCTTCTTTCATTAATCCGTTAGCAATTGTTTTGCTATATACCTTTACCTTTTAAGAGGAGGAAT,0.3
2,CGACATGTCCCGCTTCTTTCATTAATCCGTTAGCAATTGTTTTGCTATATACTTTTACCTTTTAAGAGGAGGAAT,0.272
3,CGACATGTCCCGCTTCTTTCATTAATCCGTTAGCAATTGTTTTGCTATATAGATTTACCTTTTAAGAGGAGGAAT,1.51
4,CGACATGTCCCGCTTCTTTCATTAATCCGTTAGCAATTGTTTTGCTATATGCATTTACCTTTTAAGAGGAGGAAT,0.232
5,CGACATGTCCCGCTTCTTTCATTAATCCGTTAGCAATTGTTTTGCTTTATACATTTACCTTTTAAGAGGAGGAAT,0.361
6,CGACATGTCCCGCTTCTTTCATTAATCCGTTAGCAATTGTTTTGTTATATACATTTACCTTTTAAGAGGAGGAAT,0.425
7,CGACATGTCCCGCTTCTTTCATTAATCCGTTAGCAATTTTTTTGCTATATACATTTACCTTTTAAGAGGAGGAAT,1.16
8,CGACATGTCCCGCTTCTTTCATTAATCCGTTAGCACCTCTTTTGCTATATACATTTACCTTTTAAGAGGAGGAAT,0.235
9,CGACATGTCCCGCTTCTTTCATTAATCCGTTAGCACCTGTTTTGCAATATACATTTACCTTTTAAGAGGAGGAAT,0.351
10,CGACATGTCCCGCTTCTTTCATTAATCCGTTAGCACCTGTTTTGCTATATACAATTACCTTTTAAGAGGAGGAAT,0.867
11,CGACATGTCCCGCTTCTTTCATTAATCCGTTAGCACCTGTTTTGCTATATACAGTTACCTTTTAAGAGGAGGAAT,0.393
12,CGACATGTCCCGCTTCTTTCATTAATCCGTTAGCACCTGTTTTGCTATATACATTTACCTTTTAAGAGGAGGAAT,0.748
13,CGACATGTCCCGCTTCTTTCATTAATCCGTTAGCACCTGTTTTGCTATATACATTTACTTTTTAAGAGGAGGAAT,0.499
14,CGACATGTCCCGCTTCTTTCATTAATCCGTTAGCACCTGTTTTGCTATATATATTTACCTTTTAAGAGGAGGAAT,1.44
15,CGACATGTCCCGCTTCTTTCATTAATCCGTTAGCAGCTGTTTTGCTATATACATTTACCTTTTAAGAGGAGGAAT,0.754
16,CGACATGTCCCGCTTCTTTCATTAATCCGTTAGCAGCTGTTTTTCTATATACATTTACCTTTTAAGAGGAGGAAT,0.778
17,CGACATGTCCCGCTTCTTTCATTAATCCGTTAGCATCTATTTTGCTATATACATTTACCTTTTAAGAGGAGGAAT,1.53
18,CGACATGTCCCGCTTCTTTCATTAATCCGTTAGCATCTCTTTTGCTATATACATTTACCTTTTAAGAGGAGGAAT,0.59
19,CGACATGTCCCGCTTCTTTCATTAATCCGTTAGCATCTGATTTGCTATATACATTTACCTTTTAAGAGGAGGAAT,1.34
20,CGACATGTCCCGCTTCTTTCATTAATCCGTTAGCATCTGTTTTCCTATATACATTTACCTTTTAAGAGGAGGAAT,0.524
21,CGACATGTCCCGCTTCTTTCATTAATCCGTTAGCATCTGTTTTGATATATACATTTACCTTTTAAGAGGAGGAAT,0.491
22,CGACATGTCCCGCTTCTTTCATTAATCCGTTAGCATCTGTTTTGCTATATACATATACCTTTTAAGAGGAGGAAT,0.727

row,Sequence,cleaved RNA product abundance
1,CGACATGTCCCGCTTCTTTCATTAATCCGTTAGCATCTGTTTTGCTATATACATTTAACTTTTAAGAGGAGGAAT,0.999
2,CGACATGTCCCGCTTCTTTCATTAATCCGTTAGCATCTGTTTTGCTATATACATTTACATTTTAAGAGGAGGAAT,1.1
3,CGACATGTCCCGCTTCTTTCATTAATCCGTTAGCATCTGTTTTGCTATATACATTTACCTTTTAAGAGGAGGAAT,0.769
4,CGACATGTCCCGCTTCTTTCATTAATCCGTTAGCATCTGTTTTGCTATATACATTTACGTTTTAAGAGGAGGAAT,0.589
5,CGACATGTCCCGCTTCTTTCATTAATCCGTTAGCATCTGTTTTGCTATATACCTTTACCTTTTAAGAGGAGGAAT,0.152
6,CGACATGTCCCGCTTCTTTCATTAATCCGTTAGCATCTGTTTTGCTATATAGATTTACCTTTTAAGAGGAGGAAT,0.899
7,CGACATGTCCCGCTTCTTTCATTAATCCGTTAGCATCTGTTTTGCTATATTCATTTACCTTTTAAGAGGAGGAAT,0.31
8,CGACATGTCCCGCTTCTTTCATTAATCCGTTAGCATCTGTTTTTCTATATACATTTACCTTTTAAGAGGAGGAAT,0.273
9,CGACATGTCCCGCTTCTTTCATTAATCCGTTAGCATCTTTTTTGCTATATACATTTACCTTTTAAGAGGAGGAAT,0.995
10,CGACATGTCCCGCTTCTTTCATTAATCCGTTAGCCAATGTTTTGCTATATACATTTACCTTTTAAGAGGAGGAAT,0.576
11,CGACATGTCCCGCTTCTTTCATTAATCCGTTAGCCACTATTTTGCTATATACATTTACCTTTTAAGAGGAGGAAT,0.358
12,CGACATGTCCCGCTTCTTTCATTAATCCGTTAGCCACTGTATTGCTATATACATTTACCTTTTAAGAGGAGGAAT,0.376
13,CGACATGTCCCGCTTCTTTCATTAATCCGTTAGCCACTGTTTTGCTATAAACATTTACCTTTTAAGAGGAGGAAT,0.219
14,CGACATGTCCCGCTTCTTTCATTAATCCGTTAGCCACTGTTTTGCTATATACAGTTACCTTTTAAGAGGAGGAAT,0.244
15,CGACATGTCCCGCTTCTTTCATTAATCCGTTAGCCACTGTTTTGCTATATACATTTACCTTTTAAGAGGAGGAAT,0.478
16,CGACATGTCCCGCTTCTTTCATTAATCCGTTAGCCACTGTTTTGCTATATACATTTACTTTTTAAGAGGAGGAAT,0.98
17,CGACATGTCCCGCTTCTTTCATTAATCCGTTAGCCACTGTTTTGTTATATACATTTACCTTTTAAGAGGAGGAAT,0.247
18,CGACATGTCCCGCTTCTTTCATTAATCCGTTAGCCAGTGTTTTGCTATATACATTTACCTTTTAAGAGGAGGAAT,0.333
19,CGACATGTCCCGCTTCTTTCATTAATCCGTTAGCGACAGTTTTGCTATATACATTTACCTTTTAAGAGGAGGAAT,0.233
20,CGACATGTCCCGCTTCTTTCATTAATCCGTTAGCGACTGTTTAGCTATATACATTTACCTTTTAAGAGGAGGAAT,0.681
21,CGACATGTCCCGCTTCTTTCATTAATCCGTTAGCGACTGTTTTGATATATACATTTACCTTTTAAGAGGAGGAAT,0.24
22,CGACATGTCCCGCTTCTTTCATTAATCCGTTAGCGACTGTTTTGCTATATACATTGACCTTTTAAGAGGAGGAAT,0.274
